According to US8465945B2, “Method for production and use of mite group 1 proteins” (Merck Patent GmbH, priority 1999, dated 2013):

What was measured:
[1] = tested on: anti-Der f 1 MAb 6A8 (capture) and anti-Der f 1 MAb 4C1 (detection); test: Monoclonal Capture ELISA; format: binding
Procedure: Assays were carried out as follows. A microtiter plate as described in Example 5 was coated overnight at 4° C. with 100 ng/well of anti-Der f 1 protein monoclonal antibody 6A8, denoted herein as anti-Der f 1 MAb 6A8, provided by Dr. Martin Chapman. The plate was washed in the manner described above. The following proteins were then added to wells, having been diluted in Assay Buffer in a 2-fold dilution series, from 0.75 to 50 ng/well: Heska native Derf1, P. pastoris-expressed PDerf1303b, and E. coli-expressed PDerf1303c. After incubation for 1 hour at room temperature, plates were washed as described in Example 5. Then 100 μl per well of a 1:1000 dilution in Assay Buffer of biotinylated anti-Der f 1 monoclonal antibody 4C1, also denoted anti-Der f 1 MAb 4C1, provided by Dr. Martin Chapman, was added for 1 hour at room temperature. Plates were washed, streptavidin-HRP conjugate was added, and plates were developed as described in Example 5.

[2] = tested on: IgE from mite-allergic or normal human sera; test: ELISA, binding of IgE from human sera to coated Der f 1 proteins or mite extracts, detected with FcεR1α-biotin
[3] = tested on: IgE from mite-allergic dog sera; test: ELISA, binding of IgE from dog sera to coated Der f 1 proteins or mite extracts, detected with FcεR1α-biotin
Procedure: Native or recombinant Der f 1 proteins in 100 μl CBC buffer (50 mM sodium carbonate, pH 9.6) were coated onto wells (100 ng per well) of Immulon II microtiter plates (available from Dynex Technologies, Chantilly, Va.) by incubation at 4° C., covered, overnight. Excess fluid was removed and wells were blocked with 200 μl Assay Buffer (4% fetal calf serum (available from Summit Laboratories, Fort Collins, Colo.) in phosphate buffered saline (PBS, recipe in Sambrook, ibid.), plus 0.05% Tween-20 (available from Sigma, St. Louis, Mo.)) for one hour at room temperature. Plates were then washed for 4 cycles on an automatic plate washer (Ultrawash, available from Dynatech Laboratories) using PBS with 0.05% Tween-20. […] Control wells were treated identically except that no serum was added. Plates were then washed as described above. Biotinylated human IgE receptor alpha chain (FcεR1α-biotin) (100 μl of 1.3 ng/ml) prepared as described in U.S. Pat. No. 5,945,294, ibid., was added and incubated for one hour at room temperature. After this incubation, plates were washed as described above. Streptavidin-horseradish peroxidase conjugate (0.5 mg/ml, available from KPL Labs, Gaithersburg, Md.) was added at a 1:5000 dilution in Assay Buffer for one hour at room temperature, after which plates were washed as described above. TMB Peroxidase substrate system, 2 part (available from KPL Labs, #0-76-00), added at 100 μl per well, was used according to the manufacturer's directions. The color reaction was allowed to proceed until good color development was reached (about 10-15 min); then the reaction was stopped with 100 μl per well of 1 M phosphoric acid. Bound IgE was determined by measuring absorbance (Optical Density, or OD) at 450 nm (nanometers) using an ELISA plate reader (such as Spectramax”, Molecular Devices, Sunnyvale, Calif.). Background OD readings in the control wells were subtracted from all numbers. Results are reported in Tables 1, 2 and 3 as OD multiplied by 1000. OD numbers greater than 100 are considered to be positive for a reaction with IgE. P. pastoris-expressed proteins are denoted in the Tables as Pichia expressed proteins.

B1: PDerf1303c: Recombinant pro-form of Der f 1 (SEQ ID NO:35) expressed in E. coli from nDerf1909c, refolded from inclusion bodies (protein, listed as Dermatophagoides farinae)
chain: RPASIKTFEEFKKAFNKNYATVEEEEVARKNFLESLKYVEANKGAINHLSDLSLDEFKNRYLMSAEAFEQLKTQFDLNAETSACRINSVNVPSELDLRSLRTVTPIRMQGGCGSCWAFSGVAATESAYLAYRNTSLDLSEQELVDCASQHGCHGDTIPRGIEYIQQNGVVEERSYPYVAREQRCRRPNSQHYGISNYCQIYPPDVKQIREALTQTHTAIAVIIGIKDLRAFQHYDGRTIIQHDNGYQPNYHAVNIVGYGSTQGVDYWIVRNSWDTTWGDSGYGYFQAGNNLMMIEQYPYVVIM
OD, protein captured by MAb 6A8 and detected by MAb 4C1 ([1]; 0.75 ng protein per well): 136 OD
OD, protein captured by MAb 6A8 and detected by MAb 4C1 ([1]; 1.5 ng protein per well): 268 OD
OD, protein captured by MAb 6A8 and detected by MAb 4C1 ([1]; 2.5 ng protein per well): 1372 OD
OD, protein captured by MAb 6A8 and detected by MAb 4C1 ([1]; 3.1 ng protein per well): 503 OD
OD, protein captured by MAb 6A8 and detected by MAb 4C1 ([1]; 6.25 ng protein per well): 890 OD
OD, protein captured by MAb 6A8 and detected by MAb 4C1 ([1]; 25 ng protein per well): 1770 OD
OD, protein captured by MAb 6A8 and detected by MAb 4C1 ([1]; 50 ng protein per well): 1983 OD
OD, bound IgE ([2]; Assay Number 1, serum human 1916): 18 OD multiplied by 1000
OD, bound IgE ([2]; Assay Number 1, serum human3848): 2291 OD multiplied by 1000
OD, bound IgE ([2]; Assay Number 1, serum human 3958): 147 OD multiplied by 1000
OD, bound IgE ([2]; Assay Number 1, serum human 3960): 1442 OD multiplied by 1000
OD, bound IgE ([2]; Assay Number 1, serum human 3961): 67 OD multiplied by 1000
OD, bound IgE ([2]; Assay Number 1, serum human 3987): 1416 OD multiplied by 1000
OD, bound IgE ([2]; Assay Number 1, serum human 4289): 29 OD multiplied by 1000
OD, bound IgE ([2]; Assay Number 1, serum human 4467): 236 OD multiplied by 1000
OD, bound IgE ([2]; Assay Number 1, serum human 5207): 1902 OD multiplied by 1000
OD, bound IgE ([2]; Assay Number 1, serum human pool): 883 OD multiplied by 1000
OD, bound IgE ([2]; Assay Number 2, serum Heska human B): 0 OD multiplied by 1000
OD, bound IgE ([2]; Assay Number 2, serum Heska human C): 4 OD multiplied by 1000
OD, bound IgE ([2]; Assay Number 2, serum Heska human D): 0 OD multiplied by 1000
OD, bound IgE ([2]; Assay Number 2, serum Heska human E): 10 OD multiplied by 1000
OD, bound IgE ([2]; Assay Number 2, serum Heska human F): 0 OD multiplied by 1000
OD, bound IgE ([2]; Assay Number 2, serum Heska human G): 0 OD multiplied by 1000
OD, bound IgE ([2]; Assay Number 2, serum Heska human H): 0 OD multiplied by 1000
OD, bound IgE ([2]; Assay Number 2, serum Heska human I): 1 OD multiplied by 1000
OD, bound IgE ([2]; Assay Number 2, serum Heska human J): 0 OD multiplied by 1000
OD, bound IgE ([2]; Assay Number 2, serum Heska human K): 0 OD multiplied by 1000
OD, bound IgE ([2]; Assay Number 2, serum Heska human L): 0 OD multiplied by 1000
OD, bound IgE ([2]; Assay Number 2, serum Heska human M): 0 OD multiplied by 1000
OD, bound IgE ([2]; Assay Number 2, serum Heska human N): 24 OD multiplied by 1000
OD, bound IgE ([2]; Assay Number 2, serum Heska human O): 2 OD multiplied by 1000
OD, bound IgE ([2]; Assay Number 2, serum Heska human P): 0 OD multiplied by 1000
OD, bound IgE ([2]; Assay Number 2, serum Heska human Q): 0 OD multiplied by 1000
OD, bound IgE ([2]; Assay Number 2, serum Heska human R): 0 OD multiplied by 1000
OD, bound IgE ([2]; Assay Number 2, serum human 1916): 21 OD multiplied by 1000
OD, bound IgE ([2]; Assay Number 2, serum human 3848): 2378 OD multiplied by 1000
OD, bound IgE ([2]; Assay Number 2, serum human 3958): 247 OD multiplied by 1000
OD, bound IgE ([2]; Assay Number 2, serum human 3960): 944 OD multiplied by 1000
OD, bound IgE ([2]; Assay Number 2, serum human 3961): 46 OD multiplied by 1000
OD, bound IgE ([2]; Assay Number 2, serum human 3987): 1477 OD multiplied by 1000
OD, bound IgE ([2]; Assay Number 2, serum human 4289): 47 OD multiplied by 1000
OD, bound IgE ([2]; Assay Number 2, serum human 4467): 277 OD multiplied by 1000
OD, bound IgE ([2]; Assay Number 2, serum human 5207): 2122 OD multiplied by 1000
OD, bound IgE ([2]; Assay Number 2, serum human pool): 1161 OD multiplied by 1000
reactivity: share of human serum samples reactive to native Der f 1 proteins that are also reactive to the recombinant protein ([2]; Table 1, 9 human samples (8 sera and pool), OD numbers greater than 100 positive): 78%
reactivity: share of human serum samples reactive to native Der f 1 proteins that are also reactive to the recombinant protein ([2]; Table 2, 10 human serum samples): 70%
OD, bound IgE ([3]; Assay Number 1, serum dog pool): 615 OD multiplied by 1000
OD, bound IgE ([3]; Assay Number 1, serum dog-1): 0 OD multiplied by 1000
OD, bound IgE ([3]; Assay Number 1, serum dog-2): 258 OD multiplied by 1000
OD, bound IgE ([3]; Assay Number 1, serum dog-3): 45 OD multiplied by 1000
OD, bound IgE ([3]; Assay Number 2, dog sera pool A 146): 489 OD multiplied by 1000
OD, bound IgE ([3]; Assay Number 2, dog sera pool KS338): 68 OD multiplied by 1000
dog serum samples bound, of those that bound to native Der f 1 proteins ([3]; Table 1): 1 of 2

B2: PDerf1223b: Recombinant mature form of Der f 1 (SEQ ID NO:32) expressed by P. pastoris from nDerf1669b (protein, listed as Dermatophagoides farinae)
chain: TSACRINSVNVPSELDLRSLRTVTPIRMQGGCGSCWAFSGVAATESAYLAYRNTSLDLSEQELVDCASQHGCHGDTIPRGIEYIQQNGVVEERSYPYVAREQRCRRPNSQHYGISNYCQIYPPDVKQIREALTQTHTAIAVIIGIKDLRAFQHYDGRTIIQHDNGYQPNYHAVNIVGYGSTQGVDYWIVRNSWDTTWGDSGYGYFQAGNNLMMIEQYPYVVIM
OD, bound IgE ([2]; Table 3, sera 429, PDerf1303b preparation number A166-26, PDerf1223b preparation 1000-7): 63 OD multiplied by 1000
OD, bound IgE ([2]; Table 3, sera 1916, PDerf1303b preparation number A166-26, PDerf1223b preparation 1000-7): 0 OD multiplied by 1000
OD, bound IgE ([2]; Table 3, sera 3848, PDerf1303b preparation number A166-26, PDerf1223b preparation 1000-7): 1253 OD multiplied by 1000
OD, bound IgE ([2]; Table 3, sera 3958, PDerf1303b preparation number A166-26, PDerf1223b preparation 1000-7): 1224 OD multiplied by 1000
OD, bound IgE ([2]; Table 3, sera 3960, PDerf1303b preparation number A166-26, PDerf1223b preparation 1000-7): 634 OD multiplied by 1000
OD, bound IgE ([2]; Table 3, sera 3961, PDerf1303b preparation number A166-26, PDerf1223b preparation 1000-7): 301 OD multiplied by 1000
OD, bound IgE ([2]; Table 3, sera 3987, PDerf1303b preparation number A166-26, PDerf1223b preparation 1000-7): 1078 OD multiplied by 1000
OD, bound IgE ([2]; Table 3, sera 4467, PDerf1303b preparation number A166-26, PDerf1223b preparation 1000-7): 432 OD multiplied by 1000
OD, bound IgE ([2]; Table 3, sera 5207, PDerf1303b preparation number A166-26, PDerf1223b preparation 1000-7): 1096 OD multiplied by 1000
OD, bound IgE ([2]; Table 3, sera human pool, PDerf1303b preparation number A166-26, PDerf1223b preparation 1000-7): 774 OD multiplied by 1000
